# Measured values as given in patent publication US20210347873A1 (SHANGHAI PHARMAEXPLORER, published 2021).
# Key:
# [1] = target: T1, human APRIL protein (human, UniProt O75888 105-250, limits assumed); assay: ELISA, coated APRIL; antibody 0.0213 nM
# T1 construct: Bought protein; also called recombinant APRIL protein
# T1 sequence (looked up): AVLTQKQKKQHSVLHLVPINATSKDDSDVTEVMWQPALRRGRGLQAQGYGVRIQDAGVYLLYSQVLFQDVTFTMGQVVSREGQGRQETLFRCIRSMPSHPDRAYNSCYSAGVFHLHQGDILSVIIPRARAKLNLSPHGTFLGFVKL
# How it was run: (§1)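 APRIL 1.0 μg/mL coated o/n 4 °C; block BSA/Tween-PBS 2 h 37 °C; BLyS Ab 1 h 37 °C; HRP 2° Ab 1 h 37 °C; TMB 5 min RT, 1.0 N HCl stop; OD450. Human IgG control.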
# [2] = target: T1, human APRIL protein; assay: ELISA, coated APRIL; antibody 66.7 nM
# How it was run: as §1
# [3] = target: T1, human APRIL protein; assay: ELISA, coated APRIL; antibody 0.534 nM
# How it was run: as §1
# [4] = target: T1, human APRIL protein; assay: ELISA, coated APRIL; antibody 0.107 nM
# How it was run: as §1
# [5] = target: T2, cynomolgus BLyS (full length, arginine to histidine at position 132) on CHO-K1 cells (cynomolgus, UniProt Q9Y275 1-285 (human entry)); assay: flow cytometry, CHO-K1 cynoBLyS cells, antibody 66.7 nM
# T2 construct: also called cyno BLyS; CHO-K1 cynoBLyS
# T2 chain: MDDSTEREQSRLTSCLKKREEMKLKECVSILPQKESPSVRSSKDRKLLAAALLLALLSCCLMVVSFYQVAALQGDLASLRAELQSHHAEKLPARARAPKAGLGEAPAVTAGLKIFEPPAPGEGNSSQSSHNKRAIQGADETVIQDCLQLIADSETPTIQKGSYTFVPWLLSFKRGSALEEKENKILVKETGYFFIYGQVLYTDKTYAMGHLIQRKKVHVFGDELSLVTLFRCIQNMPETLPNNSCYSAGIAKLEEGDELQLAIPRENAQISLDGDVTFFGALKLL
# [6] = target: T3, human BLyS (full length, arginine to histidine at position 132) on CHO-K1 cells (human, UniProt Q9Y275 1-285); assay: flow cytometry, CHO-K1 hBLyS cells, antibody 0.0213 nM
# T3 construct: also called hBLyS; CHO-K1 hBLyS
# T3 sequence (Q9Y275 whole entry R130H): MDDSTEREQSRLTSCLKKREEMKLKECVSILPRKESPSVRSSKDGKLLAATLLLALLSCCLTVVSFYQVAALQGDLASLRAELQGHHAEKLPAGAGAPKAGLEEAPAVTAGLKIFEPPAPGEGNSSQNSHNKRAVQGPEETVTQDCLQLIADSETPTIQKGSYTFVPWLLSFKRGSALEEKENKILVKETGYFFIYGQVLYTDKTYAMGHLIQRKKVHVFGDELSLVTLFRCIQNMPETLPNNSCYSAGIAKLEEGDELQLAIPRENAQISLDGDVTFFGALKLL
# [7] = target: T3, human BLyS (full length, arginine to …); assay: flow cytometry, CHO-K1 hBLyS cells, antibody 0 nM
# [8] = target: T2, cynomolgus BLyS (full length, arginine …); assay: flow cytometry, CHO-K1 cynoBLyS cells, antibody 0.534 nM
# [9] = target: T3, human BLyS (full length, arginine to …); assay: flow cytometry, CHO-K1 hBLyS cells, antibody 0.534 nM
# [10] = target: T2, cynomolgus BLyS (full length, arginine …); assay: flow cytometry, CHO-K1 cynoBLyS cells, antibody 0.0213 nM
# [11] = target: T2, cynomolgus BLyS (full length, arginine …); assay: flow cytometry, CHO-K1 cynoBLyS cells, antibody 0.00427 nM
# [12] = target: T3, human BLyS (full length, arginine to …); assay: flow cytometry, CHO-K1 hBLyS cells, antibody 13.3 nM
Molecule,OD450 nm [1],OD450 nm [2],OD450 nm [3],OD450 nm [4],MFI [5] [MFI],MFI [6] [MFI],MFI [7] [MFI],MFI [8] [MFI],MFI [9] [MFI],MFI [10] [MFI],MFI [11] [MFI],MFI [12] [MFI]
hIgG Control (antibody),0.0804,0.477,0.0793,0.0722,–,–,–,–,–,–,–,–
mIgG Control (antibody),0.0537,0.102,0.0536,0.0533,–,–,–,–,–,–,–,–
"2-1G11 (antibody, V domains shown, From a human naive scFv phage library; also called human BLyS antibody 2-1G11) VH: EVQLVESRGGVVQPGRSLRLSCAASGFTFSSYGMHWVRQAPGKGLEWVAVISYDGSNKYYADSVKGRFTISRDNSKNTLYLQMNSLRAEDAAVYYCARDRVDILTGYSIYGMDVWGQGTTVTVSS VL: EIVMTQSPATLSLSPGERATLSCRASQSVSSYLAWYQQKPGQAPRLLIYDASKRATGIPARFSGSGSGTDFTLTISSLEPEDFAVYYCQQRSNWPLTFGGGTKVEIK",–,–,–,–,1460,180,186,1400,591,332,176,633
"L9G7 (antibody, V domains shown, From a human naive scFv phage library; also called human BLyS antibody L9G7) VH: QIQLVQSGAEVKKPGASVKVSCKASGYTFTSYGISWVRQAPGQGLEWMGWISAYNGNTNYAQKLQGRVTMTTDTSTSTAYMELRSLRSDDTAVYYCARTYYDILTGYYYYGMDVWGQGTTVTVSS VL: EIVLTQSPGTLSLSPGERATLSCRTSQSVDTYLAWYQQKPGQAPRLLIYDASNRATGIPARFSGSGSGTDFTLTISSLEPEDFAVYYCQQRSNWPLTFGGGTKVEIK",–,–,–,–,1340,93,101,1010,469,143,63.5,630
"L9G7 (antibody, human IgG1, V domains shown) VH: QIQLVQSGAEVKKPGASVKVSCKASGYTFTSYGISWVRQAPGQGLEWMGWISAYNGNTNYAQKLQGRVTMTTDTSTSTAYMELRSLRSDDTAVYYCARTYYDILTGYYYYGMDVWGQGTTVTVSS VL: EIVLTQSPGTLSLSPGERATLSCRTSQSVDTYLAWYQQKPGQAPRLLIYDASNRATGIPARFSGSGSGTDFTLTISSLEPEDFAVYYCQQRSNWPLTFGGGTKVEIK",0.0777,0.276,0.0741,0.0861,–,–,–,–,–,–,–,–
"97A3C2H4 (antibody, V domains shown, Mouse hybridoma monoclonal antibody purified on Protein G) VH: EVKLVESGGGLVQPGGSLKLSCAASGFTFSTYTMSWVRQTPEKRLEWVAYISYGGGSTSYPDTVKGRFTISRDNAKNTLYLQMSSLKSEDTAIYYCTRHVTVVENSMDYWGQGTSVTVSS VL: DILLTQSPDILSVSPGERVSFSCRASQSIGTSIHWYQQRTNGSPRLLIKYVSESFSGTPSRFSGSGSGTAFTLTINSVESEDIADYYCQQTHSWPWTFGGGTKLEIK",–,–,–,–,987,69.8,31.2,682,340,120,44.3,460
"97A3C2H4 (antibody, V domains shown, Mouse hybridoma antibody purified on Protein G) VH: EVKLVESGGGLVQPGGSLKLSCAASGFTFSTYTMSWVRQTPEKRLEWVAYISYGGGSTSYPDTVKGRFTISRDNAKNTLYLQMSSLKSEDTAIYYCTRHVTVVENSMDYWGQGTSVTVSS VL: DILLTQSPDILSVSPGERVSFSCRASQSIGTSIHWYQQRTNGSPRLLIKYVSESFSGTPSRFSGSGSGTAFTLTINSVESEDIADYYCQQTHSWPWTFGGGTKLEIK",0.0559,0.173,0.059,0.0561,–,–,–,–,–,–,–,–
"8E7D9C7F5 (antibody, V domains shown, Mouse hybridoma monoclonal antibody purified on Protein G) VH: QVQLQQSGVELARPGASVKLSCKASGYTFTSYGISWVKQRTGQALEWIGEIYPRSGNTYYNEKFKGKATLTADKSSSTAYMELRSLTSEDSAVYFCARSGPITTLVATDYGMDYWGQGTSVTVSS VL: DIVLTQSPASLAVSLGQRATISCRASKSVSTSSYSYMHWYQQKPGQPPKLLIKFASNLESGVPARFSGSGSGTDFTLNIHPVEEEDAATYYCQHSREFPYTFGGGTKLEIK",–,–,–,–,1170,122,152,1050,504,165,74.4,570
"111D10D6G3 (antibody, V domains shown, Mouse hybridoma monoclonal antibody purified on Protein G) VH: QVQLQQPGAELVKPGASVKMSCKASGYTFTRHWITWVKQRPGQGLEWIGDIFPGSGSINYNEKFKSEATLTVEKSSSTAYMQLSSLTSEDSAVYYCARGDVDVWGTGTTVTVSS VL: DIQMTQSPSSLSASLGERVSLTCRASQEIRGYLSWLQQKPNGTIKRLIYAASTLDSGVPKRFSATRSGSDFSLTISSLESEDFADYYCLQYASYPFTFGSGTKLEIK",–,–,–,–,539,65.5,32.4,478,247,108,38.8,276
"111D10D6G3 (antibody, V domains shown, Mouse hybridoma antibody purified on Protein G) VH: QVQLQQPGAELVKPGASVKMSCKASGYTFTRHWITWVKQRPGQGLEWIGDIFPGSGSINYNEKFKSEATLTVEKSSSTAYMQLSSLTSEDSAVYYCARGDVDVWGTGTTVTVSS VL: DIQMTQSPSSLSASLGERVSLTCRASQEIRGYLSWLQQKPNGTIKRLIYAASTLDSGVPKRFSATRSGSDFSLTISSLESEDFADYYCLQYASYPFTFGSGTKLEIK",0.0549,0.0681,0.0525,0.0536,–,–,–,–,–,–,–,–
"L1D12 (antibody, V domains shown, From a human naive scFv phage library; also called human BLyS antibody L1D12; LID12) VH: QVQLVQSGGGLVQPGGSLRLSCAASGFTVSSNYMSWVRQAPGKGLEWVSVIYSGGSTYYADSVKGRFTISRDNSKNTLYLQMNSLRAEDTAVYYCARGFHDILTGYGMDVWGQGTTVTVSS VL: SSELTQDPAVSVALGQTVRITCQGDSLRNYYAGWYQQKPGQAPVLVIYGKNNRPSGIPDRFSGSSSGNTASLTITGTQAEDEADYYCSSRDNSGTHLVEFGGGTKLTVL",–,–,–,–,1180,89.5,101,900,413,135,66.7,522
"L1D12 (antibody, human IgG1, V domains shown, also called LID12) VH: QVQLVQSGGGLVQPGGSLRLSCAASGFTVSSNYMSWVRQAPGKGLEWVSVIYSGGSTYYADSVKGRFTISRDNSKNTLYLQMNSLRAEDTAVYYCARGFHDILTGYGMDVWGQGTTVTVSS VL: SSELTQDPAVSVALGQTVRITCQGDSLRNYYAGWYQQKPGQAPVLVIYGKNNRPSGIPDRFSGSSSGNTASLTITGTQAEDEADYYCSSRDNSGTHLVEFGGGTKLTVL",0.0854,0.133,0.0757,0.0678,–,–,–,–,–,–,–,–
